This passage reports protein stability index results from the supplement of paper PMC10567573.

The chains are these.
B1: C10orf62 (parent)
chain: MLWVQRKRRRKETSECPSDKDKSP
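Further: lentivirally expressed fusions sorted by FACS into six bins by GFP to DsRed ratio, PSI derived from sequencing read proportions per bin multiplied by bin number.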

Variants of B1 are the subject of the data set. The data set can be described thus: protein stability index of a GFP-peptide fusion (GPS, HEK-293T) (PSI 1-6); higher = more stable. The following applies: c terminus: a fixed tail appended.
Take MLWVQRKRRRKETFECPSDKDKSP [S14F]: the protein stability index was 3.12.
The same measure for MLWVQRKRRRKETRECPSDKDKSP [S14R]: 2.55; for MLWVQRKRRRKETHECPSDKDKSP [S14H]: 2.71.
In the case of MLWVQRKRRRKETDECPSDKDKSP [S14D] it was 3.12.
Take MLWVQRKRRRKETWECPSDKDKSP [S14W]: the protein stability index was determined as 2.94.
Regarding MLWVQRKRRRKETEECPSDKDKSP [S14E], the protein stability index worked out at 3.2.
The same measure for MLWVQRKRRRKETYECPSDKDKSP [S14Y]: 2.44.
Consider MLWVQRKRRRKETTECPSDKDKSP [S14T], for which the protein stability index was found to be 2.55.
The same measure for MLWVQRKRRRKETMECPSDKDKSP [S14M]: 3.31.
For the variant MLWVQRKRRRKETNECPSDKDKSP [S14N], the protein stability index worked out at 3.14.
The same measure for MLWVQRKRRRKETVECPSDKDKSP [S14V]: 3.14.
MLWVQRKRRRKETGECPSDKDKSP [S14G]: the protein stability index stood at 3.1.
In the case of MLWVQRKRRRKETAECPSDKDKSP [S14A] it was 3.82; in that of MLWVQRKRRRKETIECPSDKDKSP [S14I], 2.74; in that of MLWVQRKRRRKEPSECPSDKDKSP [T13P], 3.04.
The same measure for MLWVQRKRRRKEKSECPSDKDKSP [T13K]: 3.55; for MLWVQRKRRRKEESECPSDKDKSP [T13E]: 2.99; for MLWVQRKRRRKEISECPSDKDKSP [T13I]: 2.52.
MLWVQRKRRRKEQSECPSDKDKSP [T13Q]: the protein stability index was 2.58.
In the case of MLWVQRKRRRKEDSECPSDKDKSP [T13D], the protein stability index came out at 2.3.
In the case of MLWVQRKRRRKEYSECPSDKDKSP [T13Y] it was 2.07; in that of MLWVQRKRRRKECSECPSDKDKSP [T13C], 2.42.
The same measure for MLWVQRKRRRKEHSECPSDKDKSP [T13H]: 3.39.
The same measure for MLWVQRKRRRKELSECPSDKDKSP [T13L]: 3.4; for MLWVQRKRRRKEWSECPSDKDKSP [T13W]: 2.75; for MLWVQRKRRRKEGSECPSDKDKSP [T13G]: 2.15.
Regarding MLWVQRKRRRKESSECPSDKDKSP [T13S], the protein stability index was 2.25.
The same measure for MLWVQRKRRRKEVSECPSDKDKSP [T13V]: 4.26; for MLWVQRKRRRKERSECPSDKDKSP [T13R]: 3.48.
Turning to MLWVQRKRRRKCTSECPSDKDKSP [E12C], the protein stability index is 2.7.
In the case of MLWVQRKRRRKFTSECPSDKDKSP [E12F], the protein stability index came to 2.5.
MLWVQRKRRRKLTSECPSDKDKSP [E12L]: the protein stability index stood at 3.02.
In the case of MLWVQRKRRRKRTSECPSDKDKSP [E12R] it was 3.7.
The same measure for MLWVQRKRRRKYTSECPSDKDKSP [E12Y]: 2.68.
The same measure for MLWVQRKRRRKVTSECPSDKDKSP [E12V]: 2.93; for MLWVQRKRRRKITSECPSDKDKSP [E12I]: 2.39.
For MLWVQRKRRRKNTSECPSDKDKSP [E12N], the protein stability index turned out to be 2.67.
Take MLWVQRKRRRKGTSECPSDKDKSP [E12G]: the protein stability index was 2.49.
MLWVQRKRRRKQTSECPSDKDKSP [E12Q]: the protein stability index stood at 3.37.
In the case of MLWVQRKRRRKTTSECPSDKDKSP [E12T] it was 2.92; in that of MLWVQRKRRRKPTSECPSDKDKSP [E12P], 3.67; in that of MLWVQRKRRRKATSECPSDKDKSP [E12A], 3.13.
MLWVQRKRRRKDTSECPSDKDKSP [E12D]: the protein stability index was determined as 2.39.
For MLWVQRKRRRKMTSECPSDKDKSP [E12M], the protein stability index is 2.67.
The same measure for MLWVQRKRRRKKTSECPSDKDKSP [E12K]: 3.44; for MLWVQRKRRRKWTSECPSDKDKSP [E12W]: 2.5; for MLWVQRKRRRKHTSECPSDKDKSP [E12H]: 3.16.
The same measure for MLWVQRKRRRKSTSECPSDKDKSP [E12S]: 3.45.
In the case of MLWVQRKRRRMETSECPSDKDKSP [K11M] it was 2.71; in that of MLWVQRKRRRQETSECPSDKDKSP [K11Q], 3.44; in that of MLWVQRKRRRYETSECPSDKDKSP [K11Y], 2.31.
As to MLWVQRKRRRLETSECPSDKDKSP [K11L], the protein stability index was found to be 3.55.
MLWVQRKRRRRETSECPSDKDKSP [K11R]: the protein stability index came to 3.39.
The same measure for MLWVQRKRRRIETSECPSDKDKSP [K11I]: 2.9.
The same measure for MLWVQRKRRRNETSECPSDKDKSP [K11N]: 3.11.
The same measure for MLWVQRKRRRWETSECPSDKDKSP [K11W]: 2.45; for MLWVQRKRRRPETSECPSDKDKSP [K11P]: 3.34; for MLWVQRKRRRHETSECPSDKDKSP [K11H]: 2.72.
Take MLWVQRKRRRTETSECPSDKDKSP [K11T]: the protein stability index is 2.73.
In the case of MLWVQRKRRRKETSEWPSDKDKSP [C16W] it was 2.16; in that of MLWVQRKRRRKETSEVPSDKDKSP [C16V], 2.81; in that of MLWVQRKRRRKETSEGPSDKDKSP [C16G], 2.43.
In the case of MLWVQRKRRRKETSEMPSDKDKSP [C16M] it was 3.84.
In the case of MLWVQRKRRRKETSESPSDKDKSP [C16S] it was 4.01; in that of MLWVQRKRRRKETSEHPSDKDKSP [C16H], 3.11; in that of MLWVQRKRRRKETSEEPSDKDKSP [C16E], 3.25.
With MLWVQRKRRRKETSEKPSDKDKSP [C16K], the protein stability index was 3.41.
The same measure for MLWVQRKRRRKETSEPPSDKDKSP [C16P]: 2.16; for MLWVQRKRRRKETSEYPSDKDKSP [C16Y]: 3.1; for MLWVQRKRRRKETSEIPSDKDKSP [C16I]: 2.95.
For the variant MLWVQRKRRRKETSELPSDKDKSP [C16L], the protein stability index amounted to 2.53.
In the case of MLWVQRKRRRKETSEQPSDKDKSP [C16Q] it was 3.75; in that of MLWVQRKRRRKETSEFPSDKDKSP [C16F], 2.29.
In the case of MLWVQRKRRRKETSENPSDKDKSP [C16N] it was 3.16.
The same measure for MLWVQRKRRRKETSERPSDKDKSP [C16R]: 3.35; for MLWVQRKRRRKETSECASDKDKSP [P17A]: 4.1; for MLWVQRKRRRKETSVCPSDKDKSP [E15V]: 3.29.
For the variant MLWVQRKRRRKETSNCPSDKDKSP [E15N], the protein stability index worked out at 3.52.
The same measure for MLWVQRKRRRKETSACPSDKDKSP [E15A]: 3.71; for MLWVQRKRRRKETSHCPSDKDKSP [E15H]: 2.92; for MLWVQRKRRRKETSTCPSDKDKSP [E15T]: 2.95.
The same measure for MLWVQRKRRRKETSCCPSDKDKSP [E15C]: 3.
In the case of MLWVQRKRRRKETSRCPSDKDKSP [E15R] it was 2.54; in that of MLWVQRKRRRKETSKCPSDKDKSP [E15K], 2.74.
Turning to MLWVQRKRRRKETSQCPSDKDKSP [E15Q], the protein stability index came to 3.56.
In the case of MLWVQRKRRRKETSICPSDKDKSP [E15I], the protein stability index was determined as 1.92.
In the case of MLWVQRKRRRKETSSCPSDKDKSP [E15S] it was 2.96; in that of MLWVQRKRRRKETSMCPSDKDKSP [E15M], 2.24.
The same measure for MLWVQRKRRRKETSWCPSDKDKSP [E15W]: 2.15; for MLWVQRKRRRKETSLCPSDKDKSP [E15L]: 2.84.
For MLWVQRKRRRKETSDCPSDKDKSP [E15D], the protein stability index turned out to be 3.26.
In the case of MLWVQRKRRRKETSYCPSDKDKSP [E15Y] it was 2.76.
The same measure for MLWVQRKRRRKETSFCPSDKDKSP [E15F]: 3.
In the case of MLWVQRKRRRKETSPCPSDKDKSP [E15P] it was 2.99.
